Our source for the binding signal (z-score (mean of top ten 7-mers)) values is article PMC12990809.

What all share (assay): pulldown
For series [1], the target named is T1, TBPH (Drosophila melanogaster) (UniProt E1JGV0).
T1 sequence: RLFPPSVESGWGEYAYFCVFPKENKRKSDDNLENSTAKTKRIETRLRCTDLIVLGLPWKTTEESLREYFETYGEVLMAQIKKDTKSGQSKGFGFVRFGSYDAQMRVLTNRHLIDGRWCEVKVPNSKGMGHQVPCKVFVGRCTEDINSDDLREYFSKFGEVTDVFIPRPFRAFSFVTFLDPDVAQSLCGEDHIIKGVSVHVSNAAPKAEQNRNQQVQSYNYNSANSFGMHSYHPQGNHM
To be noted: 20 nM protein, 1.5 uM RNA pool; 20 mM HEPES pH 7.8, 70 mM KCl, 10 mM NaCl, 10% glycerol, 2 mM DTT, 0.1 ug/uL BSA; 30 min, 4 C.

Series [2] addresses T2, RBFOX2 I153V (Homo sapiens) (UniProt O43251).
T2 sequence: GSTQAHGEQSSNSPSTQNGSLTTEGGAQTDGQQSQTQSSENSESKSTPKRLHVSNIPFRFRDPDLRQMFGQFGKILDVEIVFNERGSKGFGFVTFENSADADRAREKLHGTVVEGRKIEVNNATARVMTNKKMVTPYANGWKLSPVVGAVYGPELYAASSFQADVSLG
To be noted: 20 nM protein, 1.5 uM RNA pool; 20 mM HEPES pH 7.8, 70 mM KCl, 10 mM NaCl, 10% glycerol, 2 mM DTT, 0.1 ug/uL BSA; 30 min, 4 C.

Series [3] addresses T3, U2B'' (Arabidopsis thaliana) (UniProt O22922).
T3 sequence: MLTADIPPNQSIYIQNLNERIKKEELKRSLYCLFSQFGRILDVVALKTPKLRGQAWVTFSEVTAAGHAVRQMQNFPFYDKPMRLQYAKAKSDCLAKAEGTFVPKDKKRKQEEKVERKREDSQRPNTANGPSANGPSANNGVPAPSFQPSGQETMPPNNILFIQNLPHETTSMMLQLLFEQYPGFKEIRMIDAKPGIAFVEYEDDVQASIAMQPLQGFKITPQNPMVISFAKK
As to conditions: 20 nM protein, 1.5 uM RNA pool; 20 mM HEPES pH 7.8, 70 mM KCl, 10 mM NaCl, 10% glycerol, 2 mM DTT, 0.1 ug/uL BSA; 30 min, 4 C.

The target in series [4] is T4, PK07890.1 (Cannabis sativa) (UniProt A0A7J6I7X4).
T4 sequence: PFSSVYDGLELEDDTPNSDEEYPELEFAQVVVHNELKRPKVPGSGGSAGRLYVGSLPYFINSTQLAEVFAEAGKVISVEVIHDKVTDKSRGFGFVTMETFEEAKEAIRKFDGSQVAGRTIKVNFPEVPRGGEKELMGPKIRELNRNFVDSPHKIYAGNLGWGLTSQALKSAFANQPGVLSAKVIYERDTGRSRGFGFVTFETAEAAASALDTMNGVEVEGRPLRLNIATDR
To be noted: 20 nM protein, 1.5 uM RNA pool; 20 mM HEPES pH 7.8, 70 mM KCl, 10 mM NaCl, 10% glycerol, 2 mM DTT, 0.1 ug/uL BSA; 30 min, 4 C.

In series [5] the target is T5, PK21582.1 S73F;V173L (Cannabis sativa) (UniProt A0A7J6HF55).
T5 sequence: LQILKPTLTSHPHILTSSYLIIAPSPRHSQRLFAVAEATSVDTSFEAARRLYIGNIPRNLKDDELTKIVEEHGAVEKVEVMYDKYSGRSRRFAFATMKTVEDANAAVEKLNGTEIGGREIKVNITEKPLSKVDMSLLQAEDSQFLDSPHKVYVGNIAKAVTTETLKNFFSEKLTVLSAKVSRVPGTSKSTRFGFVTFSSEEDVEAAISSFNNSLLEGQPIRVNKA
To be noted: 20 nM protein, 1.5 uM RNA pool; 20 mM HEPES pH 7.8, 70 mM KCl, 10 mM NaCl, 10% glycerol, 2 mM DTT, 0.1 ug/uL BSA; 30 min, 4 C.

Series [6] deals with T6, cpb-2 (Caenorhabditis elegans) (UniProt Q18317).
T6 sequence: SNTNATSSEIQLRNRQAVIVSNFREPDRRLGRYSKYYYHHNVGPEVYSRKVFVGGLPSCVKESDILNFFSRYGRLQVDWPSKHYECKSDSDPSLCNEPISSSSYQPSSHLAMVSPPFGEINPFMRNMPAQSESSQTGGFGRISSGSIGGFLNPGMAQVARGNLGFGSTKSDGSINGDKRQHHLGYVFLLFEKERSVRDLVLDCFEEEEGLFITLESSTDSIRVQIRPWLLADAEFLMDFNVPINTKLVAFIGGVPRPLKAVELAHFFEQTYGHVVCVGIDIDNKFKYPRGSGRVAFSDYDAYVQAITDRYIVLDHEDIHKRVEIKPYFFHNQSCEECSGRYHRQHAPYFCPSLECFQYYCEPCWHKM
To be noted: 20 nM protein, 1.5 uM RNA pool; 20 mM HEPES pH 7.8, 70 mM KCl, 10 mM NaCl, 10% glycerol, 2 mM DTT, 0.1 ug/uL BSA; 30 min, 4 C.

Series [7] concerns the target T7, rsp-1 (Caenorhabditis elegans) (UniProt Q23121).
T7 sequence: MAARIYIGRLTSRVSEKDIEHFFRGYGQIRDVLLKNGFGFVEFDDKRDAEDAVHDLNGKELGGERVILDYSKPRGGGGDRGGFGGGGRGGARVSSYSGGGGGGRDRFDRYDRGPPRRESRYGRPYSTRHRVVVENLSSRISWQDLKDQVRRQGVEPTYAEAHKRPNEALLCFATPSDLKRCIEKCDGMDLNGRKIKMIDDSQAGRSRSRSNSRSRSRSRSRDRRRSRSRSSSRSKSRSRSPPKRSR
To be noted: 20 nM protein, 1.5 uM RNA pool; 20 mM HEPES pH 7.8, 70 mM KCl, 10 mM NaCl, 10% glycerol, 2 mM DTT, 0.1 ug/uL BSA; 30 min, 4 C.

In the next series the target is T8, LIN28A (Homo sapiens) (UniProt Q9H9Z2).
T8 sequence: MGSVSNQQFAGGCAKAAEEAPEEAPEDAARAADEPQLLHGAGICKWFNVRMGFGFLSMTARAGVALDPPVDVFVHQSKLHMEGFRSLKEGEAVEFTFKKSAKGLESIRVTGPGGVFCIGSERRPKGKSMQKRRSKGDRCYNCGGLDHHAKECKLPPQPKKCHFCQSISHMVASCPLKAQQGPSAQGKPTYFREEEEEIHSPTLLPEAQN
To be noted: 20 nM protein, 1.5 uM RNA pool; 20 mM HEPES pH 7.8, 70 mM KCl, 10 mM NaCl, 10% glycerol, 2 mM DTT, 0.1 ug/uL BSA; 30 min, 4 C (protocol of this paper; not …); cited from earlier work.

The target of series [8] is T9, PFI0820c (Plasmodium falciparum) (UniProt Q8I2Y5).
T9 sequence: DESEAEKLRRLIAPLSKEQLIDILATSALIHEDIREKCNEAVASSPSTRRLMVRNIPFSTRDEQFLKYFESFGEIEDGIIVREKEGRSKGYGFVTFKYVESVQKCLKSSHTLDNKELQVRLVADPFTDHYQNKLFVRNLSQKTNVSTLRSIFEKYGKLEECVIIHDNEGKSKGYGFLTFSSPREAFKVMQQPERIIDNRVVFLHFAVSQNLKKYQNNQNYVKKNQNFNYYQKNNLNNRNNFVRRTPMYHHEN
As to conditions: 20 nM protein, 1.5 uM RNA pool; 20 mM HEPES pH 7.8, 70 mM KCl, 10 mM NaCl, 10% glycerol, 2 mM DTT, 0.1 ug/uL BSA; 30 min, 4 C.

For series [9], the target named is lark (Drosophila melanogaster) (UniProt Q94901). To be noted: 20 nM protein, 1.5 uM RNA pool; 20 mM HEPES pH 7.8, 70 mM KCl, 10 mM NaCl, 10% glycerol, 2 mM DTT, 0.1 ug/uL BSA; 30 min, 4 C (protocol of this paper; not …); cited from earlier work.
Sequence of lark (Drosophila melanogaster) (Q94901 1-207): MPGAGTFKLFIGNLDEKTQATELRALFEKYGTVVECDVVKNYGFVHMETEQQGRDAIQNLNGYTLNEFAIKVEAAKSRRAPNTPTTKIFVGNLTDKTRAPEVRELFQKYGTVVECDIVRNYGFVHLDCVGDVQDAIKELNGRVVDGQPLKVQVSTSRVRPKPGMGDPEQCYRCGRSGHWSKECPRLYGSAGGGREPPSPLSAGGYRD

As for GANUGA [RNAcompete motif RNCMPT00776], in series [1], the binding signal (z-score (mean of top ten 7-mers)) turned out to be 9.14.

In the case of UGCAUG [RNAcompete motif RNCMPT00818], in [2], the binding signal (z-score (mean of top ten 7-mers)) was found to be 26.3.

In turn, UUGCACA [RNAcompete motif RNCMPT01660] gave a binding signal (z-score (mean of top ten 7-mers)) in series [3] of 14.2.

With GAUACU [RNAcompete motif RNCMPT00790], in series [4], the binding signal (z-score (mean of top ten 7-mers)) worked out at 15.3.

Substance ANUGGAA [RNAcompete motif RNCMPT00792] registered a binding signal (z-score (mean of top ten 7-mers)) in series [5] of 10.3.

Take UUUNUA [RNAcompete motif RNCMPT00794]: in series [6], the binding signal (z-score (mean of top ten 7-mers)) worked out at 14.9.

For the substance GGAGGAG [RNAcompete motif RNCMPT00801], the binding signal (z-score (mean of top ten 7-mers)) in series [7] amounted to 9.02.

As for CGGAGG [RNAcompete motif RNCMPT00162], the binding signal (z-score (mean of top ten 7-mers)) with LIN28A (Homo sapiens) is 6.24.

With GAGAGAA [RNAcompete motif RNCMPT00793], in series [8], the binding signal (z-score (mean of top ten 7-mers)) was determined as 6.18.

Consider UCGCGCG [RNAcompete motif RNCMPT00097], for which, in series [9], the binding signal (z-score (mean of top ten 7-mers)) is 15.5.
